Where a chain is given by its changes, count along the chain named. Numbers in names are those of the source.
Experiments:
[1] = target: histone H1 (calf thymus)
[2] = target: histone H2A (calf thymus), P0C0S9
[3] = target: histone H2B (calf thymus), P62808
[4] = target: histone H3 (calf thymus), intact protein, P68432
[5] = target: histone H3 N-terminal tail peptide (residues 1-20) di-acetylated at lysines 9 and 14
[6] = target: histone H4 (calf thymus), P62803
[7] = target: histone H4 N-terminal tail peptide (residues 1-20) acetylated at Lys16
[8] = target: unacetylated histone H3 N-terminal tail peptide (residues 1-20)

B1: recombinant 6xHis-tagged full-length mSir2α (protein)
chain: MADEVALALQAAGSPSAAAAMEAASQPADEPLRKRPRRDGPGLGRSPGEPSAAVAPAAAGCEAASAAAPAALWREAAGAAASAEREAPATAVAGDGDNGSGLRREPRAADDFDDDEGEEEDEAAAAAAAAAIGYRDNLLLTDGLLTNGFHSCESDDDDRTSHASSSDWTPRPRIGPYTFVQQHLMIGTDPRTILKDLLPETIPPPELDDMTLWQIVINILSEPPKRKKRKDINTIEDAVKLLQECKKIIVLTGAGVSVSCGIPDFRSRDGIYARLAVDFPDLPDPQAMFDIEYFRKDPRPFFKFAKEIYPGQFQPSLCHKFIALSDKEGKLLRNYTQNIDTLEQVAGIQRILQCHGSFATASCLICKYKVDCEAVRGDIFNQVVPRCPRCPADEPLAIMKPEIVFFGENLPEQFHRAMKYDKDEVDLLIVIGSSLKVRPVALIPSSIPHEVPQILINREPLPHLHFDVELLGDCDVIINELCHRLGGEYAKLCCNPVKLSEITEKPPRPQKELVHLSELPPTPLHISEDSSSPERTVPQDSSVIATLVDQATNNNVNDLEVSESSCVEEKPQEVQTSRNVENINVENPDFKAVGSSTADKNERTSVAETVRKCWPNRLAKEQISKRLEGNQYLFVPPNRYIFHGAEVYSDSEDDVLSSSSCGSNSDSGTCQSPSLEEPLEDESEIEEFYNGLEDDTERPECAGGSGFGADGGDQEVVNEAIATRQELTDVNYPSDKS
[1]
  ADP-ribosylation (transfer of 32P from NAD, SDS-PAGE): but not to H1, H2A and H4
[2]
  ADP-ribosylation (transfer of 32P from NAD, SDS-PAGE): but not to H1, H2A and H4
[3]
  ADP-ribosylation (transfer of 32P from NAD, SDS-PAGE): transferred radioactive ADP-ribose to H2B and H3
[4]
  ADP-ribosylation (transfer of 32P from NAD, SDS-PAGE): transferred radioactive ADP-ribose to H2B and H3
[5]
  ADP-ribosylation of peptide (32P-NAD, thin layer chromatography): Both the yeast and mouse Sir2 modified only the diacetylated H3 tail peptide
  NAD-dependent deacetylation (HPLC): gave rise to the same array of products with a similar yield as the yeast enzyme
[6]
  ADP-ribosylation (transfer of 32P from NAD, SDS-PAGE): but not to H1, H2A and H4
[7]
  ADP-ribosyltransferase and NAD hydrolase activities (thin layer chromatography): Both ADP-ribosylation and NAD hydrolysis were stimulated by the Lys16Ac peptide
[8]
  ADP-ribosylation of peptide (32P-NAD, thin layer chromatography): modified only the diacetylated H3 tail peptide (unacetylated peptide not modified)

B2: recombinant mSir2α mutant P285A (protein)
chain: B1 chain with P285A
[3]
  mono-ADP-ribosylation activity relative to wild type (Phosphorimaging): 5% for P285A

B3: recombinant mSir2α mutant H355A (protein)
chain: B1 chain with H355A
[3]
  mono-ADP-ribosylation activity relative to wild type (Phosphorimaging): completely abolished the activity

B4: recombinant mSir2α mutant T336A (protein)
chain: B1 chain with T336A
[3]
  mono-ADP-ribosylation activity relative to wild type (Phosphorimaging): completely abolished the activity

B5: recombinant mSir2α mutant R266A (protein)
chain: B1 chain with R266A
[3]
  mono-ADP-ribosylation activity relative to wild type (Phosphorimaging): 18% for R266A

Source: US8642284
